Results published in article PMC4801485 (Biochemistry, 2015).

How the values were obtained:
Assay in all cases: NMR line shape analysis
human Cyclophilin A = human Cyclophilin A (human, UniProt P62937 1-165)
[1] = target: cyclophilin domain of human Cyclophilin B (residues 39-216) (human, UniProt P23284 39-216)
[2] = target: cyclophilin domain of human Cyclophilin C (residues 25-212) (human, UniProt P45877 25-212)
Sequence of cyclophilin domain of human Cyclophilin C (residues 25-212) (P45877 25-212): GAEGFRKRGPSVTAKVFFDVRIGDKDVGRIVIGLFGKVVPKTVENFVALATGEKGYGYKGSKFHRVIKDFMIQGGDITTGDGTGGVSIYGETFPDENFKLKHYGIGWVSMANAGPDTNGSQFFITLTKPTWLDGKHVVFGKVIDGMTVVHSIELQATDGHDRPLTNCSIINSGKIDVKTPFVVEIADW

Sequence of human Cyclophilin A (P62937 whole entry, the tested form may be a part): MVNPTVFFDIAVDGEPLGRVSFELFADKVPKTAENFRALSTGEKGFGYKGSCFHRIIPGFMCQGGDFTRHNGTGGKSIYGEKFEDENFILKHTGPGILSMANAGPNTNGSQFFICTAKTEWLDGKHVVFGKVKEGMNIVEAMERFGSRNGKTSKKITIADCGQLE
Sequence of cyclophilin domain of human Cyclophilin B (residues 39-216) (P23284 39-216): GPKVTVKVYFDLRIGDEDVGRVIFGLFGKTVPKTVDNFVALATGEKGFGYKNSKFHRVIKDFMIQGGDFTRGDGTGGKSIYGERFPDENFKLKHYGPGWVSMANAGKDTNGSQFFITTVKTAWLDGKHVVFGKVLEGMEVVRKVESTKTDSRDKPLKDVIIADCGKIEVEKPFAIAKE

koff of the cis isomer (kCD) (human Cyclophilin A): 170 s⁻¹
koff of the trans isomer (kBA) (human Cyclophilin A): 550 s⁻¹
kon of the cis isomer (kDC) (human Cyclophilin A): 1e+07 M⁻¹ s⁻¹
kon of the trans isomer (kAB) (human Cyclophilin A): 3.2e+06 M⁻¹ s⁻¹
koff of the cis isomer (kCD) [1]: 200 s⁻¹
koff of the trans isomer (kBA) [1]: 960 s⁻¹
kon of the cis isomer (kDC) [1]: 4.9e+06 M⁻¹ s⁻¹
kon of the trans isomer (kAB) [1]: 2.1e+06 M⁻¹ s⁻¹
koff of the cis isomer (kCD) [2]: 260 s⁻¹
koff of the trans isomer (kBA) [2]: 1620 s⁻¹
kon of the cis isomer (kDC) [2]: 7.9e+06 M⁻¹ s⁻¹
kon of the trans isomer (kAB) [2]: 4.2e+06 M⁻¹ s⁻¹
Binder: GSFGPDLRAGD [peptide substrate GSFGPDLRAGD]
